The data set in a line: yeast display, Sf9 membrane polyspecificity reagent, FACS + sequencing; frameworks hold sequencing errors. The procedure, abridged: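 After 36–48 hours of galactose induction, yeast (Saccharomyces cerevisiae BJ5465) displaying a synthetic nanobody library were stained at 4 °C for 1 hour with 10% biotinylated, detergent-solubilized Sf9 membrane reagent. Streptavidin microbeads enriched the stained cells before FACS sorting into low and high (top ~1%) gates on anti-HA and streptavidin fluorescence. Each clone's polyreactivity label reflects its gate of origin.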
Take “QVQLVESGGGLVQAGGSLRLSCAASGGTIHSYAMGLYRQANGKERDLVAAISGSGGSTYYADSVKGRFTISRDNAKNTFYLQMNSLKPEDTAVYYCAARDWGDGSEYYYWGQGTQVTVSS”: the “polyreactivity (PSR sort gate)” value is listed as “high polyreactivity”. For “QVQLVESGGGLVQAGGSLRLSCAASGGTLYLYAMGWYRPAPGKERELVAAISYNGGSTYADSVKGRFTISRDNAKNTVYLQMNSLKPEDTAVYYCAADRSPRCLGGYWGQGTQVTVSS”, the “polyreactivity (PSR sort gate)” value is listed as “low polyreactivity”.

In the case of “QVQLVESGGGLVQAGGSLRLSCAASGGTLYRYAMGWYRQAPGKERELVAGISSSGGRTYYADSVKGRFTISRDNAKNTVYLQMNSLKPEDTAVYYCAKYWVSSYDYWGQGNQVTVSS”, the “polyreactivity (PSR sort gate)” value is reported as “high polyreactivity”. For “QVQLVESGGGLVQAGGSLRLSCAASGGTQRYYAMGWYRQAPGKEREFVASISRSGGSTYYADSVKGRFTISRDNAKNTVYLQMNSLKPEDTAVYYCAAYWSPGYTTRRGYWGQGTQVTVSS”, the “polyreactivity (PSR sort gate)” value was “high polyreactivity”. As for “QVQLVESGGGLVQAGGSLRLSCAASGGTSYAYTMGWYRQAPGKERELVAAISGSTGSTYYADSVKGRFTISRDNAKNTVYLQMNSLKPEDTAVYYCNADISSLYSLSWFRYWYDYWGQGTQVTVSS”, the “polyreactivity (PSR sort gate)” value is “low polyreactivity”. Turning to “QVQLVESGGGLVQAGGSLRLSCAASGGTYGTNAMGWYRQAPGKERELVAAITKTGVRTYYADSVKGRFTISRDNAKNTVYLQMNSLKPEDTAVYYCAAGNPAWPFNYWGQGTQVTVSS”, the “polyreactivity (PSR sort gate)” value is “high polyreactivity”. Regarding “QVQLVESGGGLVQAGGSLRLSCAASGGTYNSNAMGWYRQAPAKEREFVAAISSSGGSTYYADSVKGRFTISRDNAKNTVNLQMNSLKPEDTAVYYCAKRYPYPNCRFRFGYWGQGTQVTVSS”, the “polyreactivity (PSR sort gate)” value is recorded as “high polyreactivity”. For “QVQLVESGGGLVQAGGSLRLSCAASGHIFFYYTMGWYRQAPGKERELVAGITIGGSTNYADSVKGRFTISRDNAKNTVYLQMNSVKPEDTAVYYCKVVKYVDIYSYWEYYYWGQGTQVTVSS”, the “polyreactivity (PSR sort gate)” value is reported as “low polyreactivity”. In the case of “QVQLVESGGGLVQAGGSLRLSCAASGHIFPTNAMGWYRQAPGKERELVAVISESVGSTYYADSVKGRFTISRDNAKNTVYLQMNSLKPEDTAVYYCATQSRYPSLDADYDYWGQGTQVTVSS” it was “low polyreactivity”; in that of “QVQLVESGGGLVQAGGSLRLSCAASGHIFTRNAMGWYRQAPGKERELVAAISRTGGSTYYADSVKGRFTISRDNAKNSVYLQMNSLKPEDTAVYYCAKRRQASEDYWGQGTQVTVSS”, “high polyreactivity”. The result for “QVQLVESGGGLVQAGGSLRLSCAASGIFGWNTMGWYRQAPGTERELVATISWGGGTTYYADSVKGRFTISRDNAKNTVYLQMNSLKPEDTAVYYCAKVYAVRIGLRYYYWGQGTQVTVSS” reads “low polyreactivity”; that for “QVQLVESGGGLVQAGGSLRLSCAASGIFLGYAMGWYRQAPGKERELVAGISSGGGTYYADSVKGRFTISRDNAKNTVYLQMNSLKPEDTAVYYCNAASQYTFDSSFDYWGQGTQVTVSS”, “low polyreactivity”; that for “QVQLVESGGGLVQAGGSLRLSCAASGIFRGYAMGWYRQAPGKEREFVAAISRTGGGTYYADSVKGRFTISRDNAKNTVYLQMNSLKPEDTAVYYCAAVRKYDGQKFGYWGQGTQVTVSS”, “low polyreactivity”.

“QVQLVESGGGLVQAGGSLRLSCAASGIFWYNMGWYRPAPGKERELVAAITASGGSRTYYADSVKGRFTISRDNAKNTVYLQMNSLKPEDTAVYYCAASSYSYLYYSWGQGTQVTVSS”: the “polyreactivity (PSR sort gate)” value was “high polyreactivity”.

“QVQLVESGGGLVQAGGSLRLSCAASGIFWYYAMGWYRQAPGKERELVAAISSGGSTYYADSVKGRFTISRDNAKNTVSLQMNSLKPEDTAVYYCNAVYWKASHYGYGYWGQGTQVTVSS”: the “polyreactivity (PSR sort gate)” value was “high polyreactivity”. On to “QVQLVESGGGLVQAGGSLRLSCAASGIFYFYAMGWYRQAPGKERELVAAITSSGGNTTYADSVKGRFTISRDNAKNTVYLQMNSLKPEDTAVYYCNADYFQDRLDYWGQGTQVTVSS”, for which the “polyreactivity (PSR sort gate)” value is “low polyreactivity”. In the case of “QVQLVESGGGLVQAGGSLRLSCAASGIIFAFSAMGWYRQAPGKERELVAGITSGGDTYYADSVKGRFTISRDNAKNTVYLQMNSLKPEDTAVYYCAADVQYPNRAGWLYWYATNFDYWGQGTQVTVSS” it was “high polyreactivity”; in that of “QVQLVESGGGLVQAGGSLRLSCAASGIIFAGNAMGWYRQEPGKERELVAAISSGTTTNYADSVKGRFTISRDNAKNTVYLQMNSLKPEDTAVYYCAADDFPYKSDYWGQGTQVTVSS”, “low polyreactivity”; in that of “QVQLVESGGGLVQAGGSLRLSCAASGIIFASNAMGWYRQAPGKERELVAAINRSGGSTYYADSVKGRFTISRDNAKNTVYLQMNSMKPEDTAVYYCAADYRFYSPTKYSYDYWGQGTLVTVSS”, “high polyreactivity”. The result for “QVQLVESGGGLVQAGGSLRLSCAASGIIFATYAMGWYRQAPGKERELVAAISSGGRTYYADSVKGRFTISRDNAKNTVYFQMNSLKPEDTAVYYCAAKSGGRSSLYNYWGQGTQVTVSS” reads “high polyreactivity”; that for “QVQLVESGGGLVQAGGSLRLSCAASGIIFAVYAMGWYRQAPGKERELVAAISTSGGRTYYADSVKGRFTISRDNAKNTVYLQMNSLKPEDTAVYYCAAEYVGKGTPDDYDYWGQGTQVTVSS”, “high polyreactivity”.

As to “QVQLVESGGGLVQAGGSLRLSCAASGIIFAYYARRWYRHAPGKERELVAAISWSGTSTYYADSVKGRFTISRDNAKNTVYLQMNSLKPEDTAVYYCNAYGLYSDMDYWGQGTQVTVSS”, the “polyreactivity (PSR sort gate)” value is listed as “high polyreactivity”. As to “QVQLVESGGGLVQAGGSLRLSCAASGIIFAYYDMGLYRKAPGKERELVAAISSTGSNTYYADSVKGRFTISRDNAKNTVYLQMNSLKPEDTAVYYCAAGYAYYIGHGDYWGQGTQVTVSS”, the “polyreactivity (PSR sort gate)” value is on record as “high polyreactivity”. In the case of “QVQLVESGGGLVQAGGSLRLSCAASGIIFDDNAMGGYRQAPGKERELVAAITYSGGSTYYADSVKGRFTISRDKAKNTVYLQMNSLKPEDTAVYYCAADNRPIVGSYYYWGQGTQVTVSS” it was “low polyreactivity”; in that of “QVQLVESGGGLVQAGGSLRLSCAASGIIFDDNAMGWYRQAPGKERELVAAINRDGSTYYADSVKGRFTISRDNAKNTVYLQLNSLKPEDTAVYYWAADFYGPRSAVYFLRYSTRYYWGQGTQVTVSS”, “low polyreactivity”; in that of “QVQLVESGGGLVQAGGSLRLSCAASGIIFDDYAMGWYRQATGKERELVAVISSSGGNTYYADSVKVRFTISRDNAKNSVYLQMNSLKPEDTAVYYCAATYYYKSIYWFEYWGQGTQVTVSS”, “low polyreactivity”. Consider “QVQLVESGGGLVQAGGSLRLSCAASGIIFDEYAMGWYRQAPGKEREMVAAITSGGSTYYADSVKGRFTISRDNAKNTVYLQMNSLKPEDTAVYYCNAYSSYGTFFYWAWPYYYWGQGTQVTVSS”, for which the “polyreactivity (PSR sort gate)” value was “high polyreactivity”.

For the sequence “QVQLVESGGGLVQAGGSLRLSCAASGIIFDGNAMGGYRQAAGKERELVAAHTSSTDSTYYADSVKGRFTISRDNAKNTVYLQMNSLKPEDTAVYYCAADYPSKTFDYWGQGTQVTVSS”, the “polyreactivity (PSR sort gate)” value is “low polyreactivity”. For the sequence “QVQLVESGGGLVQAGGSLRLSCAASGIIFDGYAMGWYRQAPGKERELVAAISGHGGSTYYADSVKGRFTISRDNAKNTVYLQMNSLKPEDTAVYYCAAEYVYWRIGQYDYWGQGTQVTVSS”, the “polyreactivity (PSR sort gate)” value is “high polyreactivity”. Regarding “QVQLVESGGGLVQAGGSLRLSCAASGIIFDHYAMGWYRQAPGKERELVAAISTGGGNTYYADSVKGRFTISRDNAKNTVYLQMNSLKPEDTAVYYCAARRGTGSYSYRYPYGYDYWGQGTQVTVSS”, the “polyreactivity (PSR sort gate)” value is “low polyreactivity”. “QVQLVESGGGLVQAGGSLRLSCAASGIIFDRYAMGWYRQAPGKERELVAAITYGGGSTYYADSVKGRFTISRDNAKNTVYLQMNSLKTEDTAVYYCAAVPRSGMYYWGQGTQVTVSS”: the “polyreactivity (PSR sort gate)” value is “high polyreactivity”. The result for “QVQLVESGGGLVQAGGSLRLSCAASGIIFDTYAMGWYIQAPGKERELVAAISRSGDTTYYADSVKGRFTISRDNAKNTVYLQMNSLKPEDTAVYYCNARQSRWDKYDYWGQGTQVTVSS” reads “high polyreactivity”; that for “QVQLVESGGGLVQAGGSLRLSCAASGIIFDTYAMGWYRQAPGKERELVAAISRSGDTTYYADSVKGRFTISRDNAKNTVFLQMNSLKPEDTAVYYCNARQSRWDKYDYWGQGTQVTVSS”, “high polyreactivity”. Consider “QVQLVESGGGLVQAGGSLRLSCAASGIIFDTYAMGWYRQAPGKERELVAAISRSGDTTYYADSVKGRFTISRDNAKNTVYLQMNSLKPEDTAVYYCYARQSRWDKYDYWGQGTQVTVSS”, for which the “polyreactivity (PSR sort gate)” value is given as “high polyreactivity”. Turning to “QVQLVESGGGLVQAGGSLRLSCAASGIIFDYNAMGWYRQAPGKERELVAAISGRSGRTYYADSVKGRFTISRDNAMNTVYLQMNSLKPEDTAVYYCAARWYAGGNYWGQGTQVTVSS”, the “polyreactivity (PSR sort gate)” value was “high polyreactivity”. Take “QVQLVESGGGLVQAGGSLRLSCAASGIIFDYYAMGWYRPAPGKERELVAAINWNGGTPYYADSVKGRFTISRDYAKKTVFLQMNSLKPEDSAVYYCNTRGRYLMVDWGHGTQVTVSS”: the “polyreactivity (PSR sort gate)” value was “high polyreactivity”. In the case of “QVQLVESGGGLVQAGGSLRLSCAASGIIFDYYAMGWYRQAPGKERELVAAITTSGGRTYYADSVKGRFTISRDNAKNTVNFQMNSLKPEDTAVYYCAASRPSPRPRYGYWGQGTQVTVSS”, the “polyreactivity (PSR sort gate)” value is listed as “high polyreactivity”. Turning to “QVQLVESGGGLVQAGGSLRLSCAASGIIFEYYAMGWSRPAPGKERQLVAAISSSGGSTYYADSVKVRFTISRDNAKNTVYLQMNSLKPEDTAVYYCATRYAASTSRWQYYYWGQGTQVTVSS”, the “polyreactivity (PSR sort gate)” value was “high polyreactivity”.

Turning to “QVQLVESGGGLVQAGGSLRLSCAASGIIFFFYDMGWYRQSPGKERELVAAISDDGVSTDYADSVKGRFTISRDNAKNTVYLQMNSLKPEDTAVYYCAAKTERVYPWFSFGYWVQGTQVTVSS”, the “polyreactivity (PSR sort gate)” value was “low polyreactivity”. The result for “QVQLVESGGGLVQAGGSLRLSCAASGIIFFLYAMGWYRPAPGKERELVAAISSGGSTYYADSVKGRFTISRDNAKNTVYLQMNSLKPEDTAVYYCNARYWPFRYYYWGQGTQVTVSS” reads “high polyreactivity”; that for “QVQLVESGGGLVQAGGSLRLSCAASGIIFFRNAMGWYRQAPGNERELVATITSGVSTNYADSVKGRFTISRDNAKNTVYLQKNSLKPEDTAVYYCATEGFPFYDFDYWGQGTQVTVSS”, “high polyreactivity”.
